The text below walks through data of publication PMC7683400.

Experiment [1] concerns the target fully glycosylated CmeA (g2CmeA), soluble periplasmic His6-tagged CmeA (Campylobacter jejuni) (UniProt Q0PBE3). Description: SPR; g0CmeA (1,040 RU) or g2CmeA (900 RU) immobilised on a CM5 chip by amine coupling; CmeC flowed over in 2-fold dilutions from 2 × 10^-7 M; HBS-PE (10 mM HEPES pH 7.4, 3 mM EDTA, 0.005% P20), 25°C, 30 µl/min; constants are of the slow interactions only, the fast interactions could not be fitted.

Experiment [2] addresses nonglycosylated CmeA (g0CmeA), soluble periplasmic His6-tagged CmeA (Campylobacter jejuni) (UniProt Q0PBE3). Described as above.
Experiment [3] concerns the target CmeC (outer membrane channel of the CmeABC efflux pump) (UniProt Q0PBE5). In words: SPR (Biacore, CM5 chip). As to conditions: pH 7.4; 25°C; not stated (no salt is listed in the buffer recipes); pH 7.4: 10 mM HEPES (HBS-PE); pH 6.0: 10 mM MES.

In experiment [1], “CmeC, outer membrane channel of CmeABC, 10×His-tagged, expressed in E. coli (natural protein)” yielded a Kd of 5 nM, a koff of 0.00075 s⁻¹ and a kon of 150000 M⁻¹ s⁻¹. In experiment [2], the Kd turned out to be 17 nM, the dissociation rate constant (koff) came out at 0.00085 s⁻¹ and the kon amounted to 50000 M⁻¹ s⁻¹.
Take “g0CmeA (non-glycosylated CmeA, periplasmic fusion protein of the CmeABC efflux pump)”: in experiment [3], the koff is recorded as 8.5 ± 1.0 × 10^–4 s^–1 and the kon is on record as 5.0 ± 0.8 × 10^4 (M^–1 s^–1).
On the same counts, the results for g2CmeA (fully N-glycosylated CmeA) are 7.5 ± 0.6 × 10^–4 s^–1 and 1.5 ± 0.04 × 10^5 (M^–1 s^−1).
